Measurements as given in the Immune Epitope Database (IEDB).

Key:
Assay in all cases: IEDB peptide-MHC binding, purified MHC/competitive/radioactivity; filed as Kd, often an IC50 or EC50 that approximates it; ≥ and ≤ were set here for values at or beyond the usual limits of such assays
Conditions in all cases: source organism: Homo sapiens
HLA-B*39:01 = target: HLA-B*39:01
HLA-B*38:01 = target: HLA-B*38:01
HLA-B*39:06 = target: HLA-B*39:06

Sequence | Kd (HLA-B*39:01) | Kd (HLA-B*38:01) | Kd (HLA-B*39:06)
FLFLFAVG | 17900 nM | ≥ 50000 nM | 405 nM
NHSSPCLEQF | ≥ 25700 nM |  | ≥ 50000 nM
SASIPLTVVA | ≥ 30900 nM | ≥ 50000 nM | 310 nM
SHLVEALYL | 5250 nM | 10 nM | ≥ 35600 nM
TNLFLFLFAV | 3950 nM | 6690 nM | 354 nM

Stronger by Kd (HLA-B*39:01), values ahead:

Kd (HLA-B*39:01) | Kd (HLA-B*38:01) | Kd (HLA-B*39:06) | Sequence
290 nM | 2760 nM | 7.4 nM | FRLLCALTSL
62 nM | ≥ 44500 nM | 41 nM | MRLLPLLA
85 nM |  | 41 nM | NRVMLPKA
35 nM | ≥ 50000 nM | 14 nM | NRVMLPKAA
11 nM | 321 nM | 696 nM | SHVAVENAL
73 nM | 142 nM | 2600 nM | THFPHQVIL
865 nM | ≥ 50000 nM | 155 nM | WMRLLPLLA
660 nM | 9750 nM | 151 nM | YHFLQIPT
